Assay results reported in patent US20220041658A1 (PROTAGONIST THERAPEUTICS, published 2022).
Positions of bridges follow the written chain, without caps; N, C: chain ends. Non-standard residues stand in square brackets, D forms with d. Trp(7-Me) = Cc1cccc2c(C[C@H](N)C(=O)O)c[nH]c12; 2Nal = N[C@@H](Cc1ccc2ccccc2c1)C(=O)O; Pen = CC(C)(S)[C@H](N)C(=O)O; αMeK = C[C@](N)(CCCCN)C(=O)O

T1: interleukin-23 receptor (IL-23R) (human, UniProt Q5VWK5 24-629)
T1 sequence (looked up): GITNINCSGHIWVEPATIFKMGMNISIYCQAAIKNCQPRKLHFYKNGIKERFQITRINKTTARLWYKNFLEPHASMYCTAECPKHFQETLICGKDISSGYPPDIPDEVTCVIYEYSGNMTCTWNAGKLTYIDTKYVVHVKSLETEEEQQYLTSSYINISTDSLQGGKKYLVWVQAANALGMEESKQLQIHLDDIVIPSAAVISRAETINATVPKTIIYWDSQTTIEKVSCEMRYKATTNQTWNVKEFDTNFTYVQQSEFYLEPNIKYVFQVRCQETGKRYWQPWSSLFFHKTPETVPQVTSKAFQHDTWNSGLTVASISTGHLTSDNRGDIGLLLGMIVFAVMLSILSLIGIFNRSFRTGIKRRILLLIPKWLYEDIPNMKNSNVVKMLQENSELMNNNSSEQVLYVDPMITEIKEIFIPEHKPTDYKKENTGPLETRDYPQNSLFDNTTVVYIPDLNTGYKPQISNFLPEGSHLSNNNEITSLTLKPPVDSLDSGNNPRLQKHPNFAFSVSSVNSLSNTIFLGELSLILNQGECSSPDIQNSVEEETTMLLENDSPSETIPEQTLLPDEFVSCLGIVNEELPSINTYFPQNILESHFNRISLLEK


How the values were obtained:
[1] = biological target: T1, interleukin-23 receptor (IL-23R); assay: cell-based or functional assay
[2] = biological target: T1, interleukin-23 receptor (IL-23R); assay: cell-based or functional assay; remark: listed apart in the source

pStat3 HTRF IC50 [1]	NK Cell Assay IC50 [2]	Binder
2.45 nM	11 nM	Ac-[Pen]NT[Trp(7-Me)]K(Ac)[Pen]H[2Nal][αMeK]K(Ac)N[dL]-NH2 (disulfide 1-6 (inferred)) [Peptide of SEQ ID NO: 290]
1.91 nM	5.12 nM	Ac-[Pen]NT[Trp(7-Me)]K(Ac)[Pen][2Nal][2Nal][αMeK]K(Ac)N[dL]-NH2 (disulfide 1-6 (inferred)) [Peptide of SEQ ID NO: 289]
